Assays:
Test in all cases: EMSA
Conditions in all cases: 50 mM Tris-HCl pH 8.0, 5 mM EDTA, 1 mM DTT, 100 mg/ml BSA (so in the source), 6% glycerol, on ice 20 min, 4% native PAGE in 6.7 mM Tris-HCl pH 8.0, 3.3 mM Na …, scale: fold of wild-type affinity
[1] = system: RecG[A693Q] (Escherichia coli K-12 MG1655?)
[2] = system: RecG[Y690A] (Escherichia coli K-12 MG1655?)
[3] = system: RecG[ΔC1] (Escherichia coli K-12 MG1655?)
[4] = no Mg2+, 5 mM EDTA, RecG 0-100 nM, DNA 0.2 nM

Measured: binding signal

J12 Holliday junction
1: [1]; [4] | [2]; [4] | [3]; [4]

replication fork lacking a lagging strand
1: [1] | [2] | [3]

From paper PMC4027168
